From patent US20240025971A1

Tests used:
Test in all cases: cell-based or functional assay
[1] = target: SARS-CoV-2 Beta (B.1.351) full-length Spike protein (SARS-CoV-2) (UniProt P0DTC2)
[2] = target: SARS-CoV-2 Delta-plus (B.1.617.2.1) full-length Spike protein (SARS-CoV-2) (UniProt P0DTC2)
[3] = target: SARS-CoV-2 Alpha (B.1.1.7) full-length Spike protein (SARS-CoV-2) (UniProt P0DTC2)
[4] = target: SARS-CoV-2 Epsilon (B.1.427/9) full-length Spike protein (SARS-CoV-2) (UniProt P0DTC2)
[5] = target: SARS-CoV-2 Gamma (P.1.B.1.1.28) full-length Spike protein (SARS-CoV-2) (UniProt P0DTC2)
[6] = target: SARS-CoV-2 Delta (B.1.617.2) full-length Spike protein (SARS-CoV-2) (UniProt P0DTC2)

Measured: Pseudovirus Neutralization

Anti-Nucleocapsid (Neg Control) (antibody)
> 50 µg/mL: [1] | [2] | [3] | [4] | [5] | [6]
